For one sequence, binding results are on record in publication PMC11039405.

For this data set, the target named is T1, AmrZ (Pseudomonas aeruginosa PAO1) (UniProt G3XCY4).
T1 sequence: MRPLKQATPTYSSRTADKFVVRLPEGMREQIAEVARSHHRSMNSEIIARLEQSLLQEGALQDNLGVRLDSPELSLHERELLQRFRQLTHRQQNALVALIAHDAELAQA
Kind of data set: EMSA.

“GTTATCTGCTTTCGGCCAAGAGATTTGGCTCCTTGCATATTATAAGAACCCCAACACTTCCCGTCGTACCTTGAATGCCCCGCCTAGCGGAGAGGCATGAATACGCTCCGTTTTATTGATTTTCAAAGCCATGAGCACGGAGTCGATTTTATAATAATCAGGATTATCCGACGTGCGCTGA (double strand) [exsA promoter]”: the binding entry is “no binding”.
